Where two headings read alike, the source gives them in different places.
Tests used:
[1] = target: T1, human EGFR (aa 1 - 1,210), on cells (human, UniProt P00533 25-1210); assay: cell-based or functional assay
[2] = target: T1, human EGFR (aa 1 - 1,210), on cells; assay: flow cytometry, FaDu cells
[3] = target: T2, CD3 on Jurkat cells (human, UniProt P07766 23-207); assay: flow cytometry, Jurkat cells
T2 construct: whole, on cells; also called CD3-expressing Jurkat

[4] = target: T1, human EGFR (aa 1 - 1,210), on cells; assay: flow cytometry, LIM1215 cells
[5] = target: T3, EGFR-moIgG2a-Fc fusion protein comprising the extracellular domain (aa 25 - 645) of human EGFR (human); assay: ELISA, coated EGFR-moIgG2a-Fc
T3 construct: also called EGFR wt

[6] = target: T4, EGFR-His fusion protein comprising the extracellular domain (aa 25 - 645) of human EGFR (human, UniProt P00533 25-645); assay: BLI (Octet), Fab on FAB2G sensor, EGFR-His in solution
T4 construct: also called His-tagged extracellular domain of EGFR wt

[7] = target: T5, His-tagged extracellular domain of EGFR comprising the mutation V441D (human, UniProt P00533 25-645); assay: as above
T5 construct: See m46; also called V441D (BLI antigen)

[8] = target: T6, His-tagged extracellular domain of EGFR comprising the mutation S464L (human, UniProt P00533 25-645); assay: as above
T6 construct: See m46; also called S464L (BLI antigen)

[9] = target: T7, His-tagged extracellular domain of EGFR comprising the mutation G465R (human, UniProt P00533 25-645); assay: as above
T7 construct: See m46; also called G465R (BLI antigen)

[10] = target: T8, His-tagged extracellular domain of EGFR comprising the mutation S492R (human, UniProt P00533 25-645); assay: as above
T8 construct: See m46; also called S492R (BLI antigen)

[11] = target: T4, EGFR-His fusion protein comprising the …; assay: ELISA, coated EGFR-His
[12] = target: T1, human EGFR (aa 1 - 1,210), on cells; assay: flow cytometry, DiFi cells
[13] = target: T1, human EGFR (aa 1 - 1,210), on cells; assay: flow cytometry, FaDu cells; remark: listed apart in the source
[14] = target: T3, EGFR-moIgG2a-Fc fusion protein …; assay: ELISA, coated EGFR-moIgG2a-Fc; remark: listed apart in the source
[15] = target: T4, EGFR-His fusion protein comprising the …; assay: ELISA, coated EGFR-His; remark: listed apart in the source

Row | Binder | EC50 [5] | Kd [6] | Kd [7] | Kd [8] | Kd [9] | Kd [10] | also measured
1 | scDb-YU250-H10 x huU3-scFv-YU250-H10 (bispecific antibody, Trivalent; detected with an anti-His antibody; also called scDb-scFv; bispecific trivalent EGFRxCD3 scDb-scFv) QVQLVQSGGGVVQPGGSLRLSCAASGFTFSSYGMHWVRQAPGKGLEWVAFIRYDGSNKYYADSVKGRFTISRDNSKNTLYLQMNSLRAEDTAVYYCAKDGNSGYDSMDYWGQGTLVTVSSGGGGSDIQMTQSPSSLSASVGDRVTITCRASQDIRNYLNWYQQKPGKAPKLLIYYTSRLHSGVPSRFSGSGSGTDFTFTISSLQPEDIATYYCQQGNTLPWTFGQGTKLEIKRGGGGSGGGGSGGGGSQVQLVQSGAEVKKPGSSVKVSCKASGGTFSGYTMNWVRQAPGQGLEWMGLINPYKGVSTYNGKFKDRVTITADKSTSTAYMELSSLRSEDTAVYYCARSGYYGDSDWYFDVWGQGTLVTVSSGGGGSQSVLTQPPSVSGAPGQRVTISCSGGSSNVGRNGVNWFQHLPEKAPKLLIYYDAFLSSGVSDRFSGSKSGTSASLAIRGLQSDDEADYYCAAWDDSLYSWVFGGGTNLTVLAAAGGSGGGGSGGGTQVQLVQSGGGVVQPGGSLRLSCAASGFTFSSYGMHWVRQAPGKGLEWVAFIRYDGSNKYYADSVKGRFTISRDNSKNTLYLQMNSLRAEDTAVYYCAKDGNSGYDSMDYWGQGTLVTVSSGGGGSGGGGSGGGGSQSVLTQPPSVSGAPGQRVTISCSGGSSNVGRNGVNWFQHLPEKAPKLLIYYDAFLSSGVSDRFSGSKSGTSASLAIRGLQSDDEADYYCAAWDDSLYSWVFGGGTNLTVLGSLHHHHHH |  |  |  |  |  |  | IC50 for cytotoxicity, FaDu + PBMCs (E:T 10:1) [1]: 0.0044 nM; IC50 for cytotoxicity, LIM1215 + PBMCs (E:T 10:1) [1]: 0.004 nM; EC50 [2]: 0.74 nM; EC50 [3]: > 10 nM; EC50 [4]: 0.31 nM
2 | Fab-His MKU011-A7 (Fab, V domains shown, also called Fab MKU011-A7; His-tagged anti-EGFR Fab MKU011-A7) VH: QVQLVQSGGGVVQPGGSLRLSCAASGFTFSSYGMHWVRQAPGKGLEWVAFIRYDGSNKYYADSVKGRFTISRDNSKNTLYLQMNSLRAEDTAVYYCAKDGNSGYDSMDYWGQGTLVTVSS VL: QPVLTQSPSASGTPGQRVTISCSGVSSNIGRNYVYWYQQFPGTAPKLLIYATHQRPSGVPDRFSGSKSGTSASLAISGLRSEDEANYYCAAWDDGVTGWVFGGGTKLTVLG | 2.79 nM | < 100 nM | < 10000 nM | < 10000 nM | < 10000 nM | < 10000 nM | 
3 | IgG1 MKU011-A7 (antibody, V domains shown, Fully human IgG1; also called IgG MKU011-A7; IgG MKU-011-A07) VH: QVQLVQSGGGVVQPGGSLRLSCAASGFTFSSYGMHWVRQAPGKGLEWVAFIRYDGSNKYYADSVKGRFTISRDNSKNTLYLQMNSLRAEDTAVYYCAKDGNSGYDSMDYWGQGTLVTVSS VL: QPVLTQSPSASGTPGQRVTISCSGVSSNIGRNYVYWYQQFPGTAPKLLIYATHQRPSGVPDRFSGSKSGTSASLAISGLRSEDEANYYCAAWDDGVTGWVFGGGTKLTVLG | 0.32 nM |  |  |  |  |  | EC50 [11]: 0.19 nM; EC50 [12]: 0.81 nM; EC50 [13]: 0.35 nM
4 | Fab-His YU250-A02 (Fab, V domains shown, Roles inferred as for IgG YU250-A02; also called Fab YU250-A02) VH: QVQLQESGGGVVQPGGSLRLSCAASGFTFSSYGMHWVRQAPGKGLEWVAFIRYDGSNKYYADSVKGRFTISRDNSKNTLYLQMNSLRAEDTAVYYCAKDGNSGYDSMDYWGQGTLVTVSS VL: QSVLTQPPSVSGAPGQRVTISCSGGSSNVGRNGVNWFQHLPEKAPKLLIYYDAFLSSGVSDRFSGSKSGTSASLAIRGLQSEDEADYYCASWDDSLTGWVFGGGTKLTVLG |  | < 100 nM | < 10000 nM | < 10000 nM | < 10000 nM | < 10000 nM | 
5 | Fab-His YU250-H10 (Fab, V domains shown, T0001 gives '6 and 8' and '9 and 11' for Fab-His YU250-H10; Roles inferred; also called Fab YU250-H10) VH: QVQLVQSGGGVVQPGGSLRLSCAASGFTFSSYGMHWVRQAPGKGLEWVAFIRYDGSNKYYADSVKGRFTISRDNSKNTLYLQMNSLRAEDTAVYYCAKDGNSGYDSMDYWGQGTLVTVSS VL: QSVLTQPPSVSGAPGQRVTISCSGGSSNVGRNGVNWFQHLPEKAPKLLIYYDAFLSSGVSDRFSGSKSGTSASLAIRGLQSDDEADYYCAAWDDSLYSWVFGGGTNLTVLG | 0.59 nM | < 100 nM | < 10000 nM | < 10000 nM | < 10000 nM | < 10000 nM | fold increased binding against Fab-His MKU011-A7 [14]: 4.7 fold
6 | scDb YU250-H10 x huU3 (bispecific antibody, Bivalent single-chain diabody; detected with an anti-His antibody; also called bispecific EGFRxCD3 scDb) QVQLVQSGGGVVQPGGSLRLSCAASGFTFSSYGMHWVRQAPGKGLEWVAFIRYDGSNKYYADSVKGRFTISRDNSKNTLYLQMNSLRAEDTAVYYCAKDGNSGYDSMDYWGQGTLVTVSSGGGGSDIQMTQSPSSLSASVGDRVTITCRASQDIRNYLNWYQQKPGKAPKLLIYYTSRLHSGVPSRFSGSGSGTDFTFTISSLQPEDIATYYCQQGNTLPWTFGQGTKLEIKRGGGGSGGGGSGGGGSQVQLVQSGAEVKKPGSSVKVSCKASGGTFSGYTMNWVRQAPGQGLEWMGLINPYKGVSTYNGKFKDRVTITADKSTSTAYMELSSLRSEDTAVYYCARSGYYGDSDWYFDVWGQGTLVTVSSGGGGSQSVLTQPPSVSGAPGQRVTISCSGGSSNVGRNGVNWFQHLPEKAPKLLIYYDAFLSSGVSDRFSGSKSGTSASLAIRGLQSDDEADYYCAAWDDSLYSWVFGGGTNLTVLAAAGGSGGGGSGGGTGGGGSLHHHHHH |  |  |  |  |  |  | IC50 for cytotoxicity, FaDu + PBMCs (E:T 10:1) [1]: 0.0181 nM; IC50 for cytotoxicity, LIM1215 + PBMCs (E:T 10:1) [1]: 0.0602 nM; EC50 [2]: 1.68 nM; EC50 [3]: 7.56 nM; EC50 [4]: 1.02 nM
7 | IgG YU250-H10 wt (parental antibody of Example 5) (antibody, kept as a molecule of its own; Roles inferred) light: QSVLTQPPSVSGAPGQRVTISCSGGSSNVGRNGVNWFQHLPEKAPKLLIYYDAFLSSGVSDRFSGSKSGTSASLAIRGLQSDDEADYYCAAWDDSLYSWVFGGGTNLTVLGQPKAAPSVTLFPPSSEELQANKATLVCLISDFYPGAVTVAWKADSSPVKAGVETTTPSKQSNNKYAASSYLSLTPEQWKSHRSYSCQVTHEGSTVEKTVAPTECS heavy: not shown |  |  |  |  |  |  | EC50 [15]: 0.49 nM
8 | IgG YU250-H10 variant VL N126K (antibody, Potential glycosylation site in VL deleted (N126K); Roles inferred; also called VL N1216K) light: QSVLTQPPSVSGAPGQRVTISCSGGSSNVGRNGVNWFQHLPEKAPKLLIYYDAFLSSGVSDRFSGSKSGTSASLAIRGLQSDDEADYYCAAWDDSLYSWVFGGGTKLTVLGQPKAAPSVTLFPPSSEELQANKATLVCLISDFYPGAVTVAWKADSSPVKAGVETTTPSKQSNNKYAASSYLSLTPEQWKSHRSYSCQVTHEGSTVEKTVAPTECS heavy: not shown |  |  |  |  |  |  | EC50 [15]: 0.53 nM

— EP4454706A1 (Universität Stuttgart, dated 2024)
